# Residue numbers refer to the chain shown, from its start.
# B1: 14L 72G 117I (protein, listed as Rattus norvegicus)
# chain: AFDGTWKVDRNENLEKFMEKMGINVVKRKLGAHDNLKLTITQEGNKFTVKESSNFRNIDVVFELGVDFAYSGADGTELTGTWTMEGNKLVGKFKRVDNGKELIAVREISGNELIQTITYEGVEAKRIFKKE
# modifications: PEPTIDE (1)...(131) wild-type rat intestinal fatty acid binding protein
# B2: 11M, 72A (protein, listed as Rattus norvegicus)
# chain: B1 chain with N11M, L14Y, G72A, I117Y
# modifications: PEPTIDE (1)...(131) wild-type rat intestinal fatty acid binding protein
# B3: 82V, 72A (protein, listed as Rattus norvegicus)
# chain: B1 chain with L14Y, G72A, W82V, I117Y
# modifications: PEPTIDE (1)...(131) wild-type rat intestinal fatty acid binding protein
# B4: 21V, 72A (protein, listed as Rattus norvegicus)
# chain: B1 chain with L14Y, M21V, G72A, I117Y
# modifications: PEPTIDE (1)...(131) wild-type rat intestinal fatty acid binding protein
# B5: 11V, 72A (protein, listed as Rattus norvegicus)
# chain: B1 chain with N11V, L14Y, G72A, I117Y
# modifications: PEPTIDE (1)...(131) wild-type rat intestinal fatty acid binding protein
# B6: 115N, 72A (protein, listed as Rattus norvegicus)
# chain: B1 chain with L14Y, G72A, Q115N, I117Y
# modifications: PEPTIDE (1)...(131) wild-type rat intestinal fatty acid binding protein
# B7: 82F, 72A (protein, listed as Rattus norvegicus)
# chain: B1 chain with L14Y, G72A, W82F, I117Y
# modifications: PEPTIDE (1)...(131) wild-type rat intestinal fatty acid binding protein
# B8: 78V, 72A (protein, listed as Rattus norvegicus)
# chain: B1 chain with L14Y, G72A, L78V, I117Y
# modifications: PEPTIDE (1)...(131) wild-type rat intestinal fatty acid binding protein
# B9: 115H, 72A (protein, listed as Rattus norvegicus)
# chain: B1 chain with L14Y, G72A, Q115H, I117Y
# modifications: PEPTIDE (1)...(131) wild-type rat intestinal fatty acid binding protein
# B10: 104Y, 72A (protein, listed as Rattus norvegicus)
# chain: B1 chain with L14Y, G72A, A104Y, I117Y
# modifications: PEPTIDE (1)...(131) wild-type rat intestinal fatty acid binding protein
# B11: 78Y, 72A (protein, listed as Rattus norvegicus)
# chain: B1 chain with L14Y, G72A, L78Y, I117Y
# modifications: PEPTIDE (1)...(131) wild-type rat intestinal fatty acid binding protein
# B12: 55Q, 72A (protein, listed as Rattus norvegicus)
# chain: B1 chain with L14Y, F55Q, G72A, I117Y
# modifications: PEPTIDE (1)...(131) wild-type rat intestinal fatty acid binding protein
# B13: 106M, 72A (protein, listed as Rattus norvegicus)
# chain: B1 chain with L14Y, G72A, R106M, I117Y
# modifications: PEPTIDE (1)...(131) wild-type rat intestinal fatty acid binding protein
# B14: 55I, 72A (protein, listed as Rattus norvegicus)
# chain: B1 chain with L14Y, F55I, G72A, I117Y
# modifications: PEPTIDE (1)...(131) wild-type rat intestinal fatty acid binding protein
# B15: 78I, 72A (protein, listed as Rattus norvegicus)
# chain: B1 chain with L14Y, G72A, L78I, I117Y
# modifications: PEPTIDE (1)...(131) wild-type rat intestinal fatty acid binding protein
# B16: 11W, 72A (protein, listed as Rattus norvegicus)
# chain: B1 chain with N11W, L14Y, G72A, I117Y
# modifications: PEPTIDE (1)...(131) wild-type rat intestinal fatty acid binding protein
# B17: 21I, 72A (protein, listed as Rattus norvegicus)
# chain: B1 chain with L14Y, M21I, G72A, I117Y
# modifications: PEPTIDE (1)...(131) wild-type rat intestinal fatty acid binding protein
# B18: 78A, 72A (protein, listed as Rattus norvegicus)
# chain: B1 chain with L14Y, G72A, L78A, I117Y
# modifications: PEPTIDE (1)...(131) wild-type rat intestinal fatty acid binding protein
# B19: 49D, 72A (protein, listed as Rattus norvegicus)
# chain: B1 chain with L14Y, V49D, G72A, I117Y
# modifications: PEPTIDE (1)...(131) wild-type rat intestinal fatty acid binding protein
# B20: 104G, 72A (protein, listed as Rattus norvegicus)
# chain: B1 chain with L14Y, G72A, A104G, I117Y
# modifications: PEPTIDE (1)...(131) wild-type rat intestinal fatty acid binding protein
# B21: 14L 72G (protein, listed as Rattus norvegicus)
# chain: B1 chain with I117Y
# modifications: PEPTIDE (1)...(131) wild-type rat intestinal fatty acid binding protein
# B22: 104F, 72A (protein, listed as Rattus norvegicus)
# chain: B1 chain with L14Y, G72A, A104F, I117Y
# modifications: PEPTIDE (1)...(131) wild-type rat intestinal fatty acid binding protein
# B23: 38I 72G (protein, listed as Rattus norvegicus)
# chain: B1 chain with L14Y, L38I, I117Y
# modifications: PEPTIDE (1)...(131) wild-type rat intestinal fatty acid binding protein
# Assay: Probe fluorescence ratio response to arachidonic acid relative to ADIFAB2
# Assay type: binding
# Conditions: arachidonic acid; response relative to ADIFAB2
# Summary of the method: (§1)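 Each fatty acid's response was expressed relative to ADIFAB2, the rI-FABP-L72A probe, as ΔR/ΔRreference. ΔR is the change in the background-corrected two-wavelength intensity ratio R=Fλ1/Fλ2 from its analyte-free baseline R0. Emission was read near about 420-480 nm for unbound and about 495-580 nm for FFA-bound probe.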
row,Molecule,DR/DR AA
1,B1,0.787
2,B2,0.697
3,B3,0.757
4,B4,0.939
5,B5,0.932
6,B6,0.918
7,B7,1.029
8,B8,1.093
9,B9,0.891
10,B10,0.364
11,B11,1.172
12,B12,0.600
13,B13,0.554
14,B14,1.079
15,B15,1.138
16,B16,0.430
17,B17,0.531
18,B18,0.433
19,B19,0.308
20,B20,0.866
21,B21,0.873
22,B22,0.686
23,B23,0.964

# Assay: Probe fluorescence ratio response to linolenic acid relative to ADIFAB2
# Assay type: binding
# Conditions: response relative to ADIFAB2
# Summary of the method: as §1
row,Molecule,DR/DR LNA
1,B1,0.812
2,B2,0.651
3,B3,0.456
4,B4,0.889
5,B5,0.763
6,B6,0.726
7,B7,0.334
8,B8,0.798
9,B9,0.697
10,B10,0.278
11,B11,0.871
12,B12,0.492
13,B13,0.490
14,B14,0.885
15,B15,0.958
16,B16,0.357
17,B17,0.412
18,B18,0.429
19,B19,0.296
20,B20,0.687
21,B21,0.886
22,B22,0.436
23,B23,0.701

# Assay: Probe fluorescence ratio response to linoleic acid relative to ADIFAB2
# Assay type: binding
# Conditions: response relative to ADIFAB2
# Summary of the method: as §1
row,Molecule,DR/DR LA
1,B1,0.764
2,B2,0.576
3,B3,0.519
4,B4,0.871
5,B5,0.825
6,B6,0.777
7,B7,0.422
8,B8,0.865
9,B9,0.741
10,B10,0.265
11,B11,0.908
12,B12,0.474
13,B13,0.485
14,B14,0.834
15,B15,0.874
16,B16,0.344
17,B17,0.365
18,B18,0.372
19,B19,0.324
20,B20,0.665
21,B21,0.817
22,B22,0.486
23,B23,0.772

# Assay: Probe fluorescence ratio response to oleic acid relative to ADIFAB2
# Assay type: binding
# Conditions: response relative to ADIFAB2
# Summary of the method: as §1
row,Molecule,DR/DR OA
1,B1,0.395
2,B2,0.463
3,B3,0.461
4,B4,0.739
5,B5,0.552
6,B6,0.711
7,B7,0.403
8,B8,0.864
9,B9,0.675
10,B10,0.236
11,B11,0.845
12,B12,0.536
13,B13,0.510
14,B14,0.901
15,B15,0.923
16,B16,0.227
17,B17,0.310
18,B18,0.350
19,B19,0.316
20,B20,0.691
21,B21,0.730
22,B22,0.462
23,B23,0.861

# Assay: Probe fluorescence ratio response to palmitic acid relative to ADIFAB2
# Assay type: binding
# Conditions: response relative to ADIFAB2
# Summary of the method: as §1
row,Molecule,DR/DR PA
1,B1,0.231
2,B2,0.543
3,B3,0.345
4,B4,0.462
5,B5,0.732
6,B6,0.558
7,B7,0.223
8,B8,0.615
9,B9,0.514
10,B10,0.140
11,B11,0.520
12,B12,0.428
13,B13,0.183
14,B14,0.774
15,B15,0.748
16,B16,0.199
17,B17,0.162
18,B18,0.190
19,B19,0.161
20,B20,0.650
21,B21,0.334
22,B22,0.263
23,B23,0.419
